Results as given in publication PMC5105068.

Biological target: soluble γc protein (sγc), recombinant murine (mouse)
Test: immunoprecipitation and immunoblot, SDS-PAGE under reducing and non-reducing conditions; culture supernatant of sγc expressing 293 T cells immunoprecipitated and immunoblotted with anti-γc ectodomain antibodies; resolved with (+ DTT) or without reduction

stoichiometry N: 2
Substance: soluble γc protein (sγc), recombinant murine (natural protein)
